The assay concerns the target T1, rProtein A Sepharose FF (Staphylococcus aureus, UniProt P38507 37-327).
T1 construct: the protein ligand is immobilized on agarose beads; also called rProtein A Sepharose 4 FF
The experiment in a line: microtiter plate column chromatography, Bradford assay; Bound (%).

B1: Bevacizumab Fab fragment (Fab, V domains shown)
VH: EVQLVESGGGLVQPGGSLRLSCAASGYTFTNYGMNWVRQAPGKGLEWVGWINTYTGEPTYAADFKRRFTFSLDTSKSTAYLQMNSLRAEDTAVYYCAKYPHYYGSSHWYFDVWGQGTLVTVSS
VL: DIQMTQSPSSLSASVGDRVTITCSASQDISNYLNWYQQKPGKAPKVLIYFTSSLHSGVPSRFSGSGSGTDFTLTISSLQPEDFATYYCQQYSTVPWTFGQGTKVEIKR
notes: also called Fab fragments
With B1, the binding result is “no binding”.

Values taken from patent publication WO2011104307A2 (dated 2011).
